For one substance, down-regulation of TfR expression in ex vivo cell cultures from chronic and acute forms of ATL, down-regulation of TfR expression on HTLV-1 infected cells from acute ATL donors in IL-15 or IL-2/IL-15 conditioned medium and Kd results are on record in US20080193453A1.

In experiment [1] the target is transferrin receptor (TfR, CD71) on cells (human) (UniProt P02786). The experiment is described as follows: cell-based or functional assay.
The target of experiment [2] is Recombinant (His)6-tagged TfR1 ectodomain (human) (UniProt P02786). The experiment is described as follows: SPR (Biacore 2000), K'd, TfR-(His)6 captured at low density (120 RU) on anti-(His)6 chip. For orientation: Surface plasmon resonance follows binding to a sensor surface in real time, without labels.
Experiment [3] shares this target. Kind of experiment: SPR (Biacore 2000), K'd, TfR-(His)6 captured at high density (1650 RU) on anti-(His)6 chip.

Sequence of Recombinant (His)6-tagged TfR1 ectodomain (human) (P02786 89-760 limits assumed, form in doubt): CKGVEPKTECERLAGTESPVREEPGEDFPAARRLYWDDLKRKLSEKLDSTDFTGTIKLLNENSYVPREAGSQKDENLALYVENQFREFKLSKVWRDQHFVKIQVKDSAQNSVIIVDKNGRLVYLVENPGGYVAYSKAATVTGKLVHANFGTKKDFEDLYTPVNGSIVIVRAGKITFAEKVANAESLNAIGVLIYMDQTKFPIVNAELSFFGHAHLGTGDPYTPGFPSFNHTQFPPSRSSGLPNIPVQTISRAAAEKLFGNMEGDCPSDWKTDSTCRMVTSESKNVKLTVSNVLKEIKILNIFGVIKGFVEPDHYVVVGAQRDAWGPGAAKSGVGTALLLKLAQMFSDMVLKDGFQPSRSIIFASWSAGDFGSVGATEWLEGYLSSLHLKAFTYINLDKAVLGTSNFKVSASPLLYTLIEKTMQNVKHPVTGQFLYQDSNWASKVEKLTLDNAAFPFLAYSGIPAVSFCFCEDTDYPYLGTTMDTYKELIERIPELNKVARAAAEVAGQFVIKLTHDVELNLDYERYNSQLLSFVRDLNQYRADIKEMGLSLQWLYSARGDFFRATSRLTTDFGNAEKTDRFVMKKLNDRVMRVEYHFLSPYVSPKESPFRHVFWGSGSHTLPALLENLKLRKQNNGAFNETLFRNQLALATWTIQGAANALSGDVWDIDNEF
Sequence of transferrin receptor (TfR, CD71) on cells (human) (P02786 whole entry, the tested form may be a part): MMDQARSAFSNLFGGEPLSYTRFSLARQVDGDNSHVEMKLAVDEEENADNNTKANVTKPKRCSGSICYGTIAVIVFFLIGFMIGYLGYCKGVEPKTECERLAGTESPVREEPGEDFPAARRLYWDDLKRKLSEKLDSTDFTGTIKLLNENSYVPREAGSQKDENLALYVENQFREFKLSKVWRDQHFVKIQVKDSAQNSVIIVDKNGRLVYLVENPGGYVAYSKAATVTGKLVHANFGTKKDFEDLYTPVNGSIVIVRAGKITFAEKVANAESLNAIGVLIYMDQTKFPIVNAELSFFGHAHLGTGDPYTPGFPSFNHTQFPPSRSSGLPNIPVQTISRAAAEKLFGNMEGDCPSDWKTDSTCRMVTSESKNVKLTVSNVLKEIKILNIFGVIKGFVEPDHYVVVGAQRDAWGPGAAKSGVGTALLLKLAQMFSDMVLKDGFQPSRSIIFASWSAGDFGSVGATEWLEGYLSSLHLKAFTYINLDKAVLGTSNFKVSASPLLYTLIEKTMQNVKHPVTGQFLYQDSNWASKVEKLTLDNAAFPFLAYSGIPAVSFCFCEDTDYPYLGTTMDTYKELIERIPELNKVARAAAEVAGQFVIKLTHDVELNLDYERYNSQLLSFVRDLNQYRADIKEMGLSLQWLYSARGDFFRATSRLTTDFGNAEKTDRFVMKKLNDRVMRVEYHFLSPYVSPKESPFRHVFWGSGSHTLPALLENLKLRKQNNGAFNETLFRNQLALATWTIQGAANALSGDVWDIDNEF

For orientation: Kd means the constant that tells how readily two partners part at equilibrium. In experiment [1], “anti-human TfR (CD71) monoclonal antibody A24” displayed a down-regulation of TfR expression in ex vivo cell cultures from chronic and acute forms of ATL above 75%; a down-regulation of TfR expression on HTLV-1 infected cells from acute ATL donors in IL-15 or IL-2/IL-15 conditioned medium above 65%. Also, in experiment [2], the Kd came to 2.69 nM. Also, the Kd in experiment [3] came to 1.02 nM.
